Laboratory results from article PMC9482650, “Quantitative fragmentomics allow affinity mapping of interactomes” (Nature Communications, 2022).

T1: DLG3_3, Q92796
T1 sequence (Q92796 374-475, limits assumed, looked up): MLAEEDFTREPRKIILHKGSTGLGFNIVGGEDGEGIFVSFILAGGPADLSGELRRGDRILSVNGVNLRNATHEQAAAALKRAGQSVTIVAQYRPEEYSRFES

T2: ARHGEF11, O15085
T2 sequence (O15085 42-136, limits assumed, looked up): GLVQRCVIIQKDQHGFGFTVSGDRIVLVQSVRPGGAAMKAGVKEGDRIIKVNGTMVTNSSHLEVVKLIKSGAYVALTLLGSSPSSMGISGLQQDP

T3: APBA2_2, Q99767
T3 sequence (Q99767 654-744, limits assumed, looked up): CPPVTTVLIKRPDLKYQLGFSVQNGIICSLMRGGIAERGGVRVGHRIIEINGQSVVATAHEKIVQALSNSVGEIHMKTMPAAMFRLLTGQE

T4: SNTB1, Q13884
T4 sequence (Q13884 107-205, limits assumed, looked up): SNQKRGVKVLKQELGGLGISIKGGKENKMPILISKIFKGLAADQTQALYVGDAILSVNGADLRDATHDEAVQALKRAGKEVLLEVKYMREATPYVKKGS

T5: MPP2, Q14168
T5 sequence (Q14168 180-250, limits assumed, looked up): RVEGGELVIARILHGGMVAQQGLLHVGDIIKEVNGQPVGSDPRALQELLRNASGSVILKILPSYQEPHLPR

T6: LNX2_3, Q8N448
T6 sequence (Q8N448 463-564, limits assumed, looked up): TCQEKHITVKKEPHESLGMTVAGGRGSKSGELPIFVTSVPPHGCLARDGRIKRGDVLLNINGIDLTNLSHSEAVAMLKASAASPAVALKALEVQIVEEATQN

T7: NHERF3_4, Q5T2W1
T7 sequence (Q5T2W1 373-468, limits assumed, looked up): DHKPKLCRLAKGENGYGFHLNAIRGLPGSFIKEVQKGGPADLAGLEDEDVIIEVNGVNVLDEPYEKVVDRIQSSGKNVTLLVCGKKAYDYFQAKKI

T8: GRIP1_2, Q9Y3R0
T8 sequence (Q9Y3R0 145-248, limits assumed, looked up): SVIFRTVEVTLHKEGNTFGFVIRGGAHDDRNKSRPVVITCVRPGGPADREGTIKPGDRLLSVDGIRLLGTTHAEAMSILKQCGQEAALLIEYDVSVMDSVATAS

T9: GRIP1_3, Q9Y3R0
T9 sequence (Q9Y3R0 247-346, limits assumed, looked up): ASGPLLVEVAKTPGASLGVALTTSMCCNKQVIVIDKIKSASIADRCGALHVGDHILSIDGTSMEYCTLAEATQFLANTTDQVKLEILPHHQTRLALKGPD

T10: MPP6, Q9NZW5
T10 sequence (Q9NZW5 125-219, limits assumed, looked up): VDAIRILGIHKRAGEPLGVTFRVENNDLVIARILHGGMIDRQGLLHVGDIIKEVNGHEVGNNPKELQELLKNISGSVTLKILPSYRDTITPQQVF

T11: GRIP1_7, Q9Y3R0
T11 sequence (Q9Y3R0 999-1096, limits assumed, looked up): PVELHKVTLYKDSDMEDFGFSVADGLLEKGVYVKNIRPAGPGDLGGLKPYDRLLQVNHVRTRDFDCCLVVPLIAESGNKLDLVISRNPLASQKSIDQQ

T12: DFNB31_1, Q9P202
T12 sequence (Q9P202 135-233, limits assumed, looked up): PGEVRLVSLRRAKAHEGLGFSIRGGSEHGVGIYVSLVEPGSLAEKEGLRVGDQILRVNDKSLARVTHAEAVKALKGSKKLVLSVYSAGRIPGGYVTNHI

T13: APBA2_1, Q99767
T13 sequence (Q99767 563-664, limits assumed, looked up): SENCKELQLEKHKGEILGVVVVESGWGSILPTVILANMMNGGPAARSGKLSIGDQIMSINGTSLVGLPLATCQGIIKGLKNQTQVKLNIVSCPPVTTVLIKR


These binders were tested against NOS1, P29475 (assay: holdup assay). Details: plain residues with an end cap or a label only (N-terminal biotin on a linker: ado-ado).
Design: key: below the threshold = too weak to quantify, mostly under pKd 3.1 to 4

Chain of NOS1, P29475 (P29475 9-101): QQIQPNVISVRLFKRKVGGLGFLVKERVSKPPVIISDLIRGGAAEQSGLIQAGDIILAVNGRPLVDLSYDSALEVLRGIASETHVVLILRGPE

| pKd | Binder |
| --- | --- |
| 3.63 | DTKNYKQTSV [CRIPT, Q9P021] |
| 3.64 | PSVGSKKTVL [REELD1, A0A1B0GV85] |

These binders were tested against GRID2IP_1, A4D2P6 (assay: holdup assay). Details: plain residues with an end cap or a label only (N-terminal biotin on a linker: ado-ado).
Design: key: below the threshold = too weak to quantify, mostly under pKd 3.1 to 4

Chain of GRID2IP_1, A4D2P6 (A4D2P6 1-87): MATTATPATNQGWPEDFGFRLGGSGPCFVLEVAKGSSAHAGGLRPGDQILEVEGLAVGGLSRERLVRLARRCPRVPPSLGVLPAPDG

| pKd | Binder |
| --- | --- |
| below the threshold | DTKNYKQTSV [CRIPT, Q9P021] |
| below the threshold | PSVGSKKTVL [REELD1, A0A1B0GV85] |

These binders were tested against DLG1_3, Q12959 (assay: holdup assay). Details: plain residues with an end cap or a label only (N-terminal biotin on a linker: ado-ado).
Design: key: below the threshold = too weak to quantify, mostly under pKd 3.1 to 4

Chain of DLG1_3, Q12959 (Q12959 457-571): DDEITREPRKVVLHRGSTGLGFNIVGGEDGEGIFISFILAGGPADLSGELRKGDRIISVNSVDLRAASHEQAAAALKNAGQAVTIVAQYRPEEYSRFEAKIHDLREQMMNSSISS

| pKd | Binder |
| --- | --- |
| 5.26 | DTKNYKQTSV [CRIPT, Q9P021] |
| below the threshold | PSVGSKKTVL [REELD1, A0A1B0GV85] |

The binders below were run against IL16_4, Q14005 (assay: holdup assay). Details: plain residues with an end cap or a label only (N-terminal biotin on a linker: ado-ado).
Design: key: below the threshold = too weak to quantify, mostly under pKd 3.1 to 4

Chain of IL16_4, Q14005 (Q14005 1229-1329): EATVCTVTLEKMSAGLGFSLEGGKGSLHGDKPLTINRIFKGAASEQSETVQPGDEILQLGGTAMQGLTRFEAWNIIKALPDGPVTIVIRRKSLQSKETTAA

| pKd | Binder |
| --- | --- |
| 3.71 | DTKNYKQTSV [CRIPT, Q9P021] |
| 3.6 | PSVGSKKTVL [REELD1, A0A1B0GV85] |

Each binder was assayed against T1, DLG3_3, Q92796 (assay: holdup assay). Details: plain residues with an end cap or a label only (N-terminal biotin on a linker: ado-ado).
Design: key: below the threshold = too weak to quantify, mostly under pKd 3.1 to 4

| pKd | Binder |
| --- | --- |
| 5.16 | DTKNYKQTSV [CRIPT, Q9P021] |
| below the threshold | PSVGSKKTVL [REELD1, A0A1B0GV85] |

Each binder was assayed against DLG4_1, P78352 (assay: holdup assay). Details: plain residues with an end cap or a label only (N-terminal biotin on a linker: ado-ado).
Design: key: below the threshold = too weak to quantify, mostly under pKd 3.1 to 4

Chain of DLG4_1, P78352 (P78352 62-152): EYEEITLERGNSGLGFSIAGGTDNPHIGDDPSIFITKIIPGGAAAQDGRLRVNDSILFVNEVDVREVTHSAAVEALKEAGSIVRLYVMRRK

| pKd | Binder |
| --- | --- |
| 4.37 | DTKNYKQTSV [CRIPT, Q9P021] |
| below the threshold | PSVGSKKTVL [REELD1, A0A1B0GV85] |

These binders were tested against T2, ARHGEF11, O15085 (assay: holdup assay). Details: plain residues with an end cap or a label only (N-terminal biotin on a linker: ado-ado).
Design: key: below the threshold = too weak to quantify, mostly under pKd 3.1 to 4

| pKd | Binder |
| --- | --- |
| 4.12 | DTKNYKQTSV [CRIPT, Q9P021] |
| 4.2 | PSVGSKKTVL [REELD1, A0A1B0GV85] |

The binders below were run against GORASP2, Q9H8Y8 (assay: holdup assay). Details: plain residues with an end cap or a label only (N-terminal biotin on a linker: ado-ado).
Design: key: below the threshold = too weak to quantify, mostly under pKd 3.1 to 4

| pKd | Binder |
| --- | --- |
| below the threshold | DTKNYKQTSV [CRIPT, Q9P021] |
| below the threshold | PSVGSKKTVL [REELD1, A0A1B0GV85] |

What follows are binders tested against CASK, O14936 (assay: holdup assay). Details: plain residues with an end cap or a label only (N-terminal biotin on a linker: ado-ado).
Design: key: below the threshold = too weak to quantify, mostly under pKd 3.1 to 4

Chain of CASK, O14936 (O14936 487-570): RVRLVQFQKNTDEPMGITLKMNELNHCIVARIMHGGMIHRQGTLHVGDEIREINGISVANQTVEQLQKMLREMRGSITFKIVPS

| pKd | Binder |
| --- | --- |
| below the threshold | DTKNYKQTSV [CRIPT, Q9P021] |
| below the threshold | PSVGSKKTVL [REELD1, A0A1B0GV85] |

Each binder was assayed against TJP1_3, Q07157 (assay: holdup assay). Details: plain residues with an end cap or a label only (N-terminal biotin on a linker: ado-ado).
Design: key: below the threshold = too weak to quantify, mostly under pKd 3.1 to 4

Chain of TJP1_3, Q07157 (Q07157 416-512): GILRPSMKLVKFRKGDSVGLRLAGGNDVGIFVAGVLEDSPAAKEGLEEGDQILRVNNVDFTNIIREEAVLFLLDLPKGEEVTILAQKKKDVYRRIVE

| pKd | Binder |
| --- | --- |
| below the threshold | DTKNYKQTSV [CRIPT, Q9P021] |
| below the threshold | PSVGSKKTVL [REELD1, A0A1B0GV85] |

These binders were tested against T3, APBA2_2, Q99767 (assay: holdup assay). Details: plain residues with an end cap or a label only (N-terminal biotin on a linker: ado-ado).
Design: key: below the threshold = too weak to quantify, mostly under pKd 3.1 to 4

| pKd | Binder |
| --- | --- |
| below the threshold | DTKNYKQTSV [CRIPT, Q9P021] |
| below the threshold | PSVGSKKTVL [REELD1, A0A1B0GV85] |

What follows are binders tested against T4, SNTB1, Q13884 (assay: holdup assay). Details: plain residues with an end cap or a label only (N-terminal biotin on a linker: ado-ado).
Design: key: below the threshold = too weak to quantify, mostly under pKd 3.1 to 4

| pKd | Binder |
| --- | --- |
| 4.73 | DTKNYKQTSV [CRIPT, Q9P021] |
| 3.56 | PSVGSKKTVL [REELD1, A0A1B0GV85] |

The binders below were run against T5, MPP2, Q14168 (assay: holdup assay). Details: plain residues with an end cap or a label only (N-terminal biotin on a linker: ado-ado).
Design: key: below the threshold = too weak to quantify, mostly under pKd 3.1 to 4

| pKd | Binder |
| --- | --- |
| below the threshold | DTKNYKQTSV [CRIPT, Q9P021] |
| below the threshold | PSVGSKKTVL [REELD1, A0A1B0GV85] |

The binders below were run against T6, LNX2_3, Q8N448 (assay: holdup assay). Details: plain residues with an end cap or a label only (N-terminal biotin on a linker: ado-ado).
Design: key: below the threshold = too weak to quantify, mostly under pKd 3.1 to 4

| pKd | Binder |
| --- | --- |
| below the threshold | DTKNYKQTSV [CRIPT, Q9P021] |
| below the threshold | PSVGSKKTVL [REELD1, A0A1B0GV85] |

Each binder was assayed against LNX1_3, Q8TBB1 (assay: holdup assay). Details: plain residues with an end cap or a label only (N-terminal biotin on a linker: ado-ado).
Design: key: below the threshold = too weak to quantify, mostly under pKd 3.1 to 4

Chain of LNX1_3, Q8TBB1 (Q8TBB1 500-596): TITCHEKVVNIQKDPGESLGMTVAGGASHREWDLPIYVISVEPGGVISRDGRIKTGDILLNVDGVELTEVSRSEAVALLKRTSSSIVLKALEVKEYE

| pKd | Binder |
| --- | --- |
| below the threshold | DTKNYKQTSV [CRIPT, Q9P021] |
| below the threshold | PSVGSKKTVL [REELD1, A0A1B0GV85] |

Each binder was assayed against T7, NHERF3_4, Q5T2W1 (assay: holdup assay). Details: plain residues with an end cap or a label only (N-terminal biotin on a linker: ado-ado).
Design: key: below the threshold = too weak to quantify, mostly under pKd 3.1 to 4

| pKd | Binder |
| --- | --- |
| 3.56 | DTKNYKQTSV [CRIPT, Q9P021] |
| 3.87 | PSVGSKKTVL [REELD1, A0A1B0GV85] |

What follows are binders tested against MAST2, Q6P0Q8 (assay: holdup assay). Details: plain residues with an end cap or a label only (N-terminal biotin on a linker: ado-ado).
Design: key: below the threshold = too weak to quantify, mostly under pKd 3.1 to 4

Chain of MAST2, Q6P0Q8 (Q6P0Q8 1099-1202): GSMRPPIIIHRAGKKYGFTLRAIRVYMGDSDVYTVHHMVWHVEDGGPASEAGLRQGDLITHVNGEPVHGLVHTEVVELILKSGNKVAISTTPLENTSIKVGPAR

| pKd | Binder |
| --- | --- |
| 5.35 | DTKNYKQTSV [CRIPT, Q9P021] |
| 5.05 | PSVGSKKTVL [REELD1, A0A1B0GV85] |

The binders below were run against GIPC2, Q8TF65 (assay: holdup assay). Details: plain residues with an end cap or a label only (N-terminal biotin on a linker: ado-ado).
Design: key: below the threshold = too weak to quantify, mostly under pKd 3.1 to 4

Chain of GIPC2, Q8TF65 (Q8TF65 112-203): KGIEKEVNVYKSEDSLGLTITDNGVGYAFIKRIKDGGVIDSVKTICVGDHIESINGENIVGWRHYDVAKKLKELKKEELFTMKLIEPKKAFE

| pKd | Binder |
| --- | --- |
| below the threshold | DTKNYKQTSV [CRIPT, Q9P021] |
| below the threshold | PSVGSKKTVL [REELD1, A0A1B0GV85] |

Each binder was assayed against T8, GRIP1_2, Q9Y3R0 (assay: holdup assay). Details: plain residues with an end cap or a label only (N-terminal biotin on a linker: ado-ado).
Design: key: below the threshold = too weak to quantify, mostly under pKd 3.1 to 4

| pKd | Binder |
| --- | --- |
| below the threshold | DTKNYKQTSV [CRIPT, Q9P021] |
| below the threshold | PSVGSKKTVL [REELD1, A0A1B0GV85] |

These binders were tested against T9, GRIP1_3, Q9Y3R0 (assay: holdup assay). Details: plain residues with an end cap or a label only (N-terminal biotin on a linker: ado-ado).
Design: key: below the threshold = too weak to quantify, mostly under pKd 3.1 to 4

| pKd | Binder |
| --- | --- |
| below the threshold | DTKNYKQTSV [CRIPT, Q9P021] |
| below the threshold | PSVGSKKTVL [REELD1, A0A1B0GV85] |

The binders below were run against T10, MPP6, Q9NZW5 (assay: holdup assay). Details: plain residues with an end cap or a label only (N-terminal biotin on a linker: ado-ado).
Design: key: below the threshold = too weak to quantify, mostly under pKd 3.1 to 4

| pKd | Binder |
| --- | --- |
| below the threshold | DTKNYKQTSV [CRIPT, Q9P021] |
| below the threshold | PSVGSKKTVL [REELD1, A0A1B0GV85] |

These binders were tested against T11, GRIP1_7, Q9Y3R0 (assay: holdup assay). Details: plain residues with an end cap or a label only (N-terminal biotin on a linker: ado-ado).
Design: key: below the threshold = too weak to quantify, mostly under pKd 3.1 to 4

| pKd | Binder |
| --- | --- |
| below the threshold | DTKNYKQTSV [CRIPT, Q9P021] |
| below the threshold | PSVGSKKTVL [REELD1, A0A1B0GV85] |

Each binder was assayed against T12, DFNB31_1, Q9P202 (assay: holdup assay). Details: plain residues with an end cap or a label only (N-terminal biotin on a linker: ado-ado).
Design: key: below the threshold = too weak to quantify, mostly under pKd 3.1 to 4

| pKd | Binder |
| --- | --- |
| 4.32 | DTKNYKQTSV [CRIPT, Q9P021] |
| below the threshold | PSVGSKKTVL [REELD1, A0A1B0GV85] |

What follows are binders tested against T13, APBA2_1, Q99767 (assay: holdup assay). Details: plain residues with an end cap or a label only (N-terminal biotin on a linker: ado-ado).
Design: key: below the threshold = too weak to quantify, mostly under pKd 3.1 to 4

| pKd | Binder |
| --- | --- |
| below the threshold | DTKNYKQTSV [CRIPT, Q9P021] |
| below the threshold | PSVGSKKTVL [REELD1, A0A1B0GV85] |
